pKd: −log10 of the molar value.
Legend:
p53 (Santa Cruz sc-4246) [1] = target: p53 (Santa Cruz sc-4246) (UniProt P04637); experiment: LSPR fiber tip probe, first of three devices, Langmuir fit
p53 (Santa Cruz sc-4246) [2] = target: p53 (Santa Cruz sc-4246) (UniProt P04637); experiment: LSPR fiber tip probe, third of three devices, Langmuir fit
p53 (Santa Cruz sc-4246) [3] = target: p53 (Santa Cruz sc-4246) (UniProt P04637); experiment: LSPR fiber tip probe, shift vs. concentration, Langmuir fit
p53 (Santa Cruz sc-4246) [4] = target: p53 (Santa Cruz sc-4246) (UniProt P04637); experiment: LSPR fiber tip probe, second of three devices, Langmuir fit
p53 (Santa Cruz sc-4246) [5] = target: p53 (Santa Cruz sc-4246) (UniProt P04637); experiment: LSPR fiber tip probe, antibody on gold nanorod, 1 nM p53 in PBS
p53 (Santa Cruz sc-4246) [6] = target: p53 (Santa Cruz sc-4246) (UniProt P04637); experiment: LSPR fiber tip probe, antibody on gold nanorod, 18.92 nM p53 in PBS
p53 (Santa Cruz sc-4246) [7] = target: p53 (Santa Cruz sc-4246) (UniProt P04637); experiment: LSPR fiber tip probe, shift vs. concentration, Langmuir fit (FIG. 3B)
p53 (Santa Cruz sc-4246) [8] = target: p53 (Santa Cruz sc-4246) (UniProt P04637); experiment: UV-Visible spectroscopy of antibody-coated gold nanorods in solution, resonance shift vs. concentration, Langmuir fit

UniProt P04637, sequence (P04637 whole entry): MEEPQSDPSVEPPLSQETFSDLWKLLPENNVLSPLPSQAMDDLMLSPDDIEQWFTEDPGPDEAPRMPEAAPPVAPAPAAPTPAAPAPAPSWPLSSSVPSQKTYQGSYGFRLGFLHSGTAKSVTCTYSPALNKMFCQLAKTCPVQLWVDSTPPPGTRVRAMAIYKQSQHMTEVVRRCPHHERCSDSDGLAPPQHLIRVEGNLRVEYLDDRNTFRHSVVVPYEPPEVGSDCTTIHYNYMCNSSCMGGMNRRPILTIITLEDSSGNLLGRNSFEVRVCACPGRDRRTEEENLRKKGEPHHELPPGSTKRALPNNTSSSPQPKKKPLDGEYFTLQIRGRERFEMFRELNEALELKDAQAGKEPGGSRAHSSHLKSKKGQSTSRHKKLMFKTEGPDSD

## p53 antibody (Santa Cruz sc-126)
p53 (Santa Cruz sc-4246) [1]
  pKd: 8.26
p53 (Santa Cruz sc-4246) [2]
  pKd: 8.15
p53 (Santa Cruz sc-4246) [3]
  pKd: 8.26
p53 (Santa Cruz sc-4246) [4]
  pKd: 8.38
p53 (Santa Cruz sc-4246) [5]
  LSPR shift: 0.55 nm
p53 (Santa Cruz sc-4246) [6]
  LSPR shift: 5.13 nm
p53 (Santa Cruz sc-4246) [7]
  pKd: 8.27
p53 (Santa Cruz sc-4246) [8]
  pKd: 8.37

From patent publication US20170265788A1
